Laboratory results: the supplement of paper PMC10126150
± gives the standard deviation of the averaged measurements.

Tested on: ATP
Assay: switch fluorescence ratio, 500 uM ATP over buffer (Cy3 cluster intensity, sum of 5 cycles each) (fold (ratio)); higher = stronger signal-on switching upon ATP binding; sequences stand for … in TCGTCGGCAGCGTCAGATGTGTATAAGAGACAGTTTTTTTTTTTTTTTTTTTTTTTTT…TC
Conditions: aptamer strand: ATP DNA aptamer (quencher-CACCTGGGGGAGTATTGCGGAGGAAGG + anchor), 100 nM annealed; ATP concentration: 500 uM
Procedure, shortened: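 For every switch-domain sequence, the fluorescence ratio is the mean of per-cluster values, each being summed target-cycle Cy3 intensity over summed buffer-cycle Cy3 intensity. Clusters outside 100-1000 RFU were excluded. On a modified Illumina MiSeq flow-cell, the Cy3-labelled switching-strand clusters were annealed to 100 nM quencher-labelled ATP aptamer, imaged in selection buffer and then after 15 min with 500 uM ATP at 22 °C. Five such cycles were run, with NaOH stripping and re-annealing between them.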
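Note: ATP exposure 15 min at 22 °C before imaging.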

Sequence | switch fluorescence ratio
TTAATTCTAC | 1.039 ± 0.0063
TTAATTGAAG | 0.958 ± 0.04
TTAATTGAGG | 0.993 ± 0.044
TTAATTGGGT | 1 ± 0.028
TTAATTTGTT | 0.988 ± 0.042
TTAATTTTAG | 0.9764 ± 0.0094
TTAATTTTGG | 1.02 ± 0.012
TTAATTTTTC | 1.02 ± 0.03
TTACAAGAAA | 1.03 ± 0.041
TTACAAGGTT | 1.02 ± 0.013
TTACAAGTAT | 1.03 ± 0.021
TTACAAGTGT | 0.993 ± 0.016
TTACAAGTTA | 1.05 ± 0.064
TTACAATTTC | 1.03 ± 0.056
TTACACATCA | 1.083 ± 0.0047
TTACAGGGGA | 1.01 ± 0.044
TTACAGGGTA | 0.981 ± 0.025
TTACAGTTGG | 1.03 ± 0.023
TTACATATGT | 1.02 ± 0.021
TTACATGATG | 1.01 ± 0.013
TTACATGCTA | 1 ± 0.032
TTACATGTAA | 0.996 ± 0.023
TTACATTT | 1.02 ± 0.017

Sequence | switch fluorescence ratio
TTACATTTAT | 1.023 ± 0.0083
TTACCATTGG | 1.04 ± 0.082
TTACCCTTGG | 1.17 ± 0.05
TTACCTGAAC | 2.02 ± 0.31
TTACGAAGTT | 1 ± 0.019
TTACGCATTT | 1.12 ± 0.08
TTACGCCGAC | 1.14 ± 0.15
TTACGCTCAT | 2.79 ± 0.61
TTACGGGCGG | 1.03 ± 0.078
TTACGGGGAC | 1.08 ± 0.089
TTACGGGTGG | 1.01 ± 0.044
TTACGGTCCA | 1.05 ± 0.017
TTACGGTGGT | 1.03 ± 0.036
TTACGGTTT | 1 ± 0.025
TTACGTTGGG | 0.997 ± 0.035
TTACTAAGGT | 1.063 ± 0.01
TTACTACGGC | 1.09 ± 0.021
TTACTAGGCG | 1.01 ± 0.053
TTACTATATG | 1.03 ± 0.018
TTACTATTGG | 0.978 ± 0.013
TTACTCGCTG | 1.07 ± 0.027
TTACTCTTCG | 1.062 ± 0.0074
TTACTGGACG | 1.07 ± 0.058

Sequence | switch fluorescence ratio
TTACTGGAG | 1.02 ± 0.06
TTACTGGATA | 0.987 ± 0.046
TTACTGGGTT | 1 ± 0.084
TTACTGTAAT | 1.18 ± 0.037
TTACTGTTAC | 1.32 ± 0.083
TTACTTACTT | 1.28 ± 0.081
TTACTTAGGT | 1.03 ± 0.068
TTAGAAAAGA | 1 ± 0.033
TTAGAACTCT | 1.01 ± 0.014
TTAGAAGACT | 1.08 ± 0.08
TTAGACATTT | 1.01 ± 0.026
TTAGAGGCTG | 0.912 ± 0.15
TTAGAGGTTA | 0.98609 ± 0.00054
TTAGAGGTTT | 0.971 ± 0.038
TTAGAGTCTG | 1.005 ± 0.01
TTAGATACAT | 1 ± 0.019
TTAGATAGGT | 1.02 ± 0.062
TTAGATATAT | 0.996 ± 0.036
TTAGATTGTG | 0.978 ± 0.03
TTAGCATAAA | 1.04 ± 0.024
TTAGCCAGCT | 0.96986 ± 0.00044
TTAGGAGGGG | 1.03 ± 0.11
TTAGGATGTA | 1.005 ± 0.0095

Sequence | switch fluorescence ratio
TTAGGATGTG | 0.984 ± 0.022
TTAGGCGGGC | 1.02 ± 0.027
TTAGGCGTAT | 0.989 ± 0.041
TTAGGCTGTG | 0.986 ± 0.03
TTAGGGAACA | 1.16 ± 0.16
TTAGGGATAC | 1.88 ± 0.88
TTAGGGCAGG | 1.06 ± 0.058
TTAGGGCGAC | 1 ± 0.044
TTAGGGCTCG | 1.01 ± 0.057
TTAGGGGCAG | 0.981 ± 0.034
TTAGGGGGGT | 1.05 ± 0.15
TTAGGGTATT | 1.02 ± 0.028
TTAGGGTCT | 1.01 ± 0.022
TTAGGGTGGG | 1.01 ± 0.053
TTAGGTAGTG | 0.9667 ± 0.0047
TTAGGTCGGT | 1.01 ± 0.0094
TTAGGTTAGA | 0.993 ± 0.014
TTAGGTTTAA | 1.02 ± 0.021
TTAGGTTTAT | 0.986 ± 0.013
TTAGGTTTCT | 1 ± 0.011
TTAGGTTTGC | 1 ± 0.032
TTAGTAATAT | 1.17 ± 0.12
TTAGTACCAT | 1.01 ± 0.028

Sequence | switch fluorescence ratio
TTAGTACTGA | 1.05 ± 0.035
TTAGTAGGGT | 0.983 ± 0.04
TTAGTAGGTC | 0.992 ± 0.047
TTAGTAGTGT | 0.973 ± 0.0063
TTAGTATGCT | 0.9864 ± 0.0082
TTAGTCGTGC | 1.01 ± 0.026
TTAGTCTGAT | 1 ± 0.038
TTAGTCTGTT | 0.99 ± 0.022
TTAGTGAAGG | 1.01 ± 0.023
TTAGTGGAAT | 0.9552 ± 0.0073
TTAGTGGGGA | 1.01 ± 0.039
TTAGTGGTAC | 1.15 ± 0.044
TTAGTGTAAT | 1.01 ± 0.025
TTAGTGTATC | 0.982 ± 0.059
TTAGTGTCTT | 0.976 ± 0.025
TTAGTTGGAT | 1.04 ± 0.029
TTAGTTGGGA | 0.9828 ± 0.0087
TTAGTTTCGG | 1.01 ± 0.019
TTAGTTTTAT | 1 ± 0.027
TTAGTTTTTC | 1.01 ± 0.032
TTATAAACCT | 1.99 ± 1.4
TTATAAGGG | 0.9843 ± 0.0022
TTATAAGTAG | 1.01 ± 0.02

Sequence | switch fluorescence ratio
TTATAATGTG | 1.009 ± 0.01
TTATAATTAG | 0.994 ± 0.046
TTATAATTGA | 1.02 ± 0.031
TTATAATTTT | 0.965 ± 0.044
TTATACACAT | 1.06 ± 0.023
TTATACAGGA | 1.019 ± 0.0057
TTATACCTTA | 1.065 ± 0.0043
TTATACGGCT | 1.11 ± 0.092
TTATACGTAT | 1.04 ± 0.037
TTATAGGGAC | 1 ± 0.015
TTATAGGGGT | 1.09 ± 0.057
TTATAGGTAT | 0.9803 ± 0.0054
TTATAGTCAT | 0.965 ± 0.027
TTATATACAG | 1.058 ± 0.0062
TTATATATGC | 0.986 ± 0.028
TTATATCTAC | 1.004 ± 0.0045
TTATATGGGG | 1 ± 0.018
TTATATGGGT | 0.999 ± 0.013
TTATATTCGC | 1.02 ± 0.084
TTATATTGGA | 0.971 ± 0.017
TTATCAGTTG | 1.01 ± 0.057
TTATCATCCG | 1.08 ± 0.038
TTATCCGGTT | 1.01 ± 0.012

Sequence | switch fluorescence ratio
TTATCGAATG | 0.965 ± 0.065
TTATCGAGTT | 1.03 ± 0.015
TTATCGATGA | 1 ± 0.03
TTATCGCTGC | 1.06 ± 0.11
TTATCGGACG | 0.969 ± 0.084
TTATCGGGTT | 0.973 ± 0.036
TTATCGTGC | 0.9864 ± 0.0071
TTATCGTTTG | 1.02 ± 0.043
TTATCTAGTT | 1 ± 0.054
TTATCTGTTA | 1.014 ± 0.0018
TTATGAGGGT | 0.982 ± 0.015
TTATGATGGA | 0.991 ± 0.013
TTATGATTTA | 0.9434 ± 0.0029
TTATGCGATT | 1 ± 0.022
TTATGGAAGG | 1.03 ± 0.02
TTATGGCATC | 0.974 ± 0.029
TTATGGCGCC | 0.9862 ± 0.0046
TTATGGGAAA | 1.02 ± 0.023
TTATGGTCCG | 0.976 ± 0.045
